From the supplement of paper PMC9170038

Tests used:
MS2 coat protein [1] = test: apparent KD of MS2 coat protein, switch ON state; designed switch direction (-1 OFF switch, 1 ON switch): 1; higher = weaker reporter binding; settings: FMN input: 0 or 200 uM; Eterna round: R93 (includes R88 designs)
In short: (§1)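 In 100 mM Tris-HCl pH 7.5 with 80 mM KCl and 4 mM MgCl2, and without or with constant ligand, SNAP-549-labelled MS2 coat protein was titrated in twofold steps from 0.7 or 1.5 nM to 3 µM. Per-step times went from 0.8–1.5 h down to 10–20 min. The RNA switches were transcribed on-chip from Illumina sequencing clusters, and apparent KD is the per-design median of normalised cluster binding-curve fits.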

MS2 coat protein [2] = test: apparent KD of MS2 coat protein, switch OFF state (with FMN for OFF switches, without FMN for ON switches); designed switch direction (-1 OFF switch, 1 ON switch): 1; higher = weaker reporter binding; settings: FMN input: 0 or 200 uM; Eterna round: R93 (includes R88 designs)
In short: as §1

Sequence | apparent KD of MS2 coat protein (MS2 coat protein [1]) [nM] | apparent KD of MS2 coat protein (MS2 coat protein [2]) [nM]
AUAAUAAUAAGGUAGGAUAUGCUAAAGUAAACAUGAGGAUCACCCAUGUAAAGAAAAAAACUCAUGUAGAAGGGCCAGAAAUAAA [moonwalk 4] | 80.1 | 71.5
GAGGACAUAGUACAGGAUAUAUGAAUAGUUACAUGAGGAUCACCCAUGUGCAUUUAUAUGCGCACAUAGAAGGGUGGUAGUUAUC [SameState2 Malc#29] | 38.8 | 33.5
AAUGAACAUGAGGAUCACCCAUGUUCUAACAGUUGAGGAUAUGUGGGUGAAAAUAGCACGGCAGAAGGCGAGUGUA [SameState1 Malc#20] | 119 | 54.6
AAUAUAUUAUUUAAGGAUAUCAUAGGAAACACAUGAGGAUCACCCAUGUGGGAAACCUGGUCGGGUGAGAAGGUGGAUAAUAUAU [Samwise Clockwise 35 - Jieux - Same State 2] | 13.8 | 35.2
AAAAGACAUGAGGAUCACCCAUGUAAAAACGUAGGAGGAUAUGUCUGGAAAACAUGCUGGACAGAAGGCCUGUGUC [SS1 - 29] | 17.6 | 25.2
GGGAGACAUGAGGAUCACCCAUGUGAGAAGAGGCGAGGAUAUCGAAAGAAAGAAGAGAAACGAGAAGGCGCGAGAC [salish99-SS1-061] | 30.4 | 45.1
AAAAGGCUAAACUAGGAUAUGGGUGUCUAAACAUGAGGAUCACCCAUGUGAUGGCAAAACAAAGCUCAGAAGGAGUGGUAGCCCA [Riquceri] | 12.4 | 56.7
ACUAUACAUGAGGAUCACCCAUGUUAGCUGGGCGAAGGAUAUGUAGAUGGAUAAAAAUAUGCAGAAGGUCGAUAAC [JR_SS001_Sub210] | 39.5 | 77.2
GAAAAACAUGAGGAUCACCCAUGUGAAAACUUGGGAGGAUAUACUAAGACGAAAGUCGAAGUAGAAGGCCUAAAAG [Same State 1.4j (Mat - Mod of Eli - )] | 19 | 89.1
AGGAGACAUGAGGAUCACCCAUGUGAGAAGAGGCGAGGAUAUCGAAAAAAAGAAAGAAAACGAGAAGGCGCGAGAA [salish99-SS1-015] | 37.6 | 64.5
AAAAGACAUGAGGAUCACCCAUGUCAAAACGUGGGAGGAUAUGCAUGGAAAACAUGCUGUGCAGAAGGCCCGUGUC [SS1 - 21] | 27.5 | 46.4
GAAAAACAUGAGGAUCACCCAUGUAAAAAUAUGGGAGGAUAUAGAAAGACGAAAGUCAAACUAGAAGGCCUAAAAG [Garnet 1] | 28.1 | 63
GGGAGACAUGAGGAUCACCCAUGUGAAAACGUGUCAGGAUAUGUAUGGAAACCAUACUGUACAGAAGGGACUUGUC [Quintus Rammius Martialis] | 54.8 | 89.2
AGGAGACAUGAGGAUCACCCAUGUGAGAAGAGGCGAGGAUAUCGAAAGAAAGAAGAGAAACGAGAAGGCGCGAGUG [salish99-SS1-026] | 28.1 | 40.9
AUAAAACAUGAGGAUCACCCAUGUCCGACAAAUCAAGGAUAUGAGAGCCUAACCAGGCUGUUAGAAGGUGAAAGAU [Riteat] | 229 | 192
CGUGAACAUGAGGAUCACCCAUGUGAAAAACAUAGAGGAUAUGUCACAUGAGUGUAAAAGACAGAAGGCUAUCGUG [Mod 1 of Round 1 starryjess' Mod pf Nando] | 98 | 152
AAUAGACAUGAGGAUCACCCAUGUAGAAUUAUGGGAGGAUAUACAAAGACGAGAGUCAGAGUAGAAGGCCUAGGAU [salish99-ss1-149] | 24.7 | 51.8

Sequence | apparent KD of MS2 coat protein (MS2 coat protein [1]) [nM] | apparent KD of MS2 coat protein (MS2 coat protein [2]) [nM]
AAAAAACAUGAGGAUCACCCAUGUGAAAAAAACGCAGGAUAUCCCUUUUUUAAAUGGGAGGGAGAAGGGUGAAAAA [Nob's Hobby 14 - Jieux - Same State 1] | 36.3 | 45.9
AGGAAACAUGAGGAUCACCCAUGUAAAAGGUGGUUAGGAUAUGCAAAAAGAAAAAGAAAAGCAGAAGGGACAAGAA [mod of top voted: #1] | 351 | 600
AAAAAACAUGAGGAUCACCCAUGUCAAAAGACGUGAGGAUAUGUACAGACUUCGGUCUGUACAGAAGGCACGAAAA [SS1 - 1037] | 12.9 | 20.1
AAAAAACAUGAGGAUCACCCAUGUAAAAAAAUGGGAGGAUAUAUGAAAAAAAAAAAAAAAAUAGAAGGCCUGAAAA [same state 11] | 399 | 64.2
UACAGACAUGAGGAUCACCCAUGUAGAAUUAUGGGAGGAUAUACAAAGACGAGAGUCAGAGUAGAAGGCCUAGGAU [salish99-ss1-164] | 23.5 | 61.3
AAUAUACAUGAGGAUCACCCAUGUUAGGUGGGACUAGGAUAUCAAAAUACAUAAUGAACAUGAGAAGGAGUAUCAA [JR_SS001_Sub403] | 140 | 249
GAUAAACAUGAGGAUCACCCAUGUAGAAAUAUGGGAGGAUAUACAAAGACGAAAGUCAAAGUAGAAGGCCUAAAAG [77%, Mat - Mod of Eli - With 1 more U's] | 24.4 | 55.5
AACCGGGAGAAGCAGGAUAUUGCCUCUUCAACAUGAGGAUCACCCAUGUAAGUAAAUUGACGAUACAAGAAGGGCUGCUCCUUAC [Raatgees] | 30.5 | 74.3
AAAAAACAUGAGGAUCACCCAUGUGCAAAAUUCGCAGGAUAUUUUUCUUUUAAAUGAGAGGGAGAAGGGUGUAAAA [Nob's Hobby 23 - Jieux - Same State 1] | 21.6 | 22.1
CUUAGACAUGAGGAUCACCCAUGUCGAACAAACAAAGGAUAUGGGAGCCGAAGAAGGCUAUUAGAAGGUUGCAAAA [Isesinbe] | 26.4 | 28.6
AAGAGACAUGAGGAUCACCCAUGUAGGAUUAUGGGAGGAUAUACAAAGACGAGAGUCAGAGUAGAAGGCCUAGGAA [salish99-ss1-129(!)] | 24.5 | 65.1
AAAUAAAUGACUAAGGAUAUAUCGGAGAAAACAUGAGGAUCACCCAUGUAAUAAUAAAAAGGGUGAUAGAAGGUAGUCAACAAAC [Mod 1 of Pariah 4 by Hyphema in Round 1] | 37.3 | 63.6
GGGAGGAAGAGAGAGGAUAUCCAAAGGAAAACAUGAGGAUCACCCAUGUAAAAGGUAGGAAAUUGGGAGAAGGCUCAAGAGAAGG [salish99-ss2-050] | 18.2 | 26.6
AAGAAACAUGAGGAUCACCCAUGUAAAUAAAUCUCAGGAUAUCGUACAUGGAAGAUCUAACGAGAAGGGAGAAGAA [Pariah 1 (MS2 Riboswitches - Same State 1)] | 85.7 | 63.4
AUAAAAGAAGCGAAGGAUAUCCAAAGGACCACAUGAGGAUCACCCAUGUAAAGAAAGAAAAAAUGGGAGAAGGUCGCAAAGAAUA [73%, More Fisker Same State 2, D3, 7] | 74.9 | 97.4
GGAAAUAACAGAGAGGAUAUCCAAAGGAAAACAUGAGGAUCACCCAUGUAAAAGGAAGGAAAUUGGGAGAAGGCUCAAAAUAGAA [salish99-ss2-019] | 15.1 | 26.7
